Results taken from publication PMC6797610, “Functional Analysis of 3-Dehydroquinate Dehydratase/Shikimate Dehydrogenases Involved in Shikimate Pathway in Camellia sinensis” (Frontiers in Plant Science, 2019).

Experiments:
[1] = biological target: T1, CsSDHa (Camellia sinensis, UniProt A0A3G3BK14); assay: HPLC product quantification; format: biochemical; conditions: 1 mM each, BTP-HCl pH 7.5, 30°C
T1 construct: SDH unit only of CsDQD/SDHa (Ile-328 to Gly-588 in AtSDH numbering), MBP fusion from pMAL-c2x, E. coli

[2] = biological target: CsDQD/SDHb (Camellia sinensis, UniProt A0A3G3BK08); assay: HPLC product quantification; format: biochemical; conditions: SA oxidation, 1 mM SA, 1 mM NADP+; BTP-HCl pH 7.5, 30°C, 30 min; very low activity, Km not determinable
Sequence of CsDQD/SDHb (Camellia sinensis, UniProt A0A3G3BK08) (A0A3G3BK08 entry or part of it): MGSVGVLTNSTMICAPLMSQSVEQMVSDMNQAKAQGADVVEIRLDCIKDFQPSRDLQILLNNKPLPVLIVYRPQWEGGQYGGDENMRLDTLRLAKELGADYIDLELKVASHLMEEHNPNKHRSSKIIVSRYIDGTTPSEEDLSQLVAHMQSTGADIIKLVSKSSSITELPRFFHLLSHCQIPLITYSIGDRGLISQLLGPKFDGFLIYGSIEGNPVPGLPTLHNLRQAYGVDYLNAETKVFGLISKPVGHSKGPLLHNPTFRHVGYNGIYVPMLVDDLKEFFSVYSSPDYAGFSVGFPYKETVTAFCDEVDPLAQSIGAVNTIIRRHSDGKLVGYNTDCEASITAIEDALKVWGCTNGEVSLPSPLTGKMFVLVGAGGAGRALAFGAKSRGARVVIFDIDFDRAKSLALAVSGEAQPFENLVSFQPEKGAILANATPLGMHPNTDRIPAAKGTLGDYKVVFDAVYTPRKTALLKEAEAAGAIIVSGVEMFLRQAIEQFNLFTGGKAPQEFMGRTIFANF

[3] = biological target: CsDQD/SDHb (Camellia sinensis, UniProt A0A3G3BK08, G296T/D398N/I399R/D400T, form not given); assay: HPLC product quantification; format: biochemical; conditions: MTCsDQD/SDHb; SA oxidation with NADP+; residue numbers after AtDQD/SDH
Sequence of CsDQD/SDHb (Camellia sinensis, UniProt A0A3G3BK08, G296T/D398N/I399R/D400T, form not given) (A0A3G3BK08 entry or part of it G296T/D398N/I399R/D400T, form open): as the sequence (A0A3G3BK08 entry or part of it) above, with G296T, D398N, I399R, D400T counted along it

[4] = substrate: NC(=O)C1=CN([C@@H]2O[C@H](COP(=O)(O)OP(=O)(O)OC[C@H]3O[C@@H](n4cnc5c(N)ncnc54)[C@H](OP(=O)(O)O)[C@@H]3O)[C@@H](O)[C@H]2O)C=CC1; assay: HPLC product assay, Michaelis-Menten; format: biochemical, Camellia sinensis; conditions: 3-DHS reduction to SA, co-substrate 3-DHS 1.5 mM, BTP-HCl pH 8.5, 30°C, 3 min
From the text: (§1) HPLC product assay, Michaelis-Menten on CsDQD/SDHa

[5] = substrate: O=C(O)C1=C[C@@H](O)[C@@H](O)[C@H](O)C1; assay: HPLC product assay, Michaelis-Menten; format: biochemical, Camellia sinensis; conditions: SA oxidation to 3-DHS, co-substrate NADP+ (per table; b27 pairs the cofactors the other way round), 1.5 mM, BTP-HCl pH 8.5, 30°C, 3 min
From the text: as §1

[6] = substrate: NC(=O)c1ccc[n+]([C@@H]2O[C@H](COP(=O)(O)OP(=O)(O)OC[C@H]3O[C@@H](n4cnc5c(N)ncnc54)[C@H](OP(=O)(O)O)[C@@H]3O)[C@@H](O)[C@H]2O)c1; assay: HPLC product assay, Michaelis-Menten; format: biochemical, Camellia sinensis; conditions: SA oxidation to 3-DHS, co-substrate SA 1.5 mM, BTP-HCl pH 8.5, 30°C, 3 min
From the text: as §1

[7] = substrate: O=C(O)C1=CC(=O)[C@@H](O)[C@H](O)C1; assay: HPLC product assay, Michaelis-Menten; format: biochemical, Camellia sinensis; conditions: 3-DHS reduction to SA, co-substrate NADPH (per table; b27 pairs the cofactors the other way round), 1.5 mM, BTP-HCl pH 8.5, 30°C, 3 min
From the text: as §1

[8] = substrate: NC(=O)C1=CN([C@@H]2O[C@H](COP(=O)(O)OP(=O)(O)OC[C@H]3O[C@@H](n4cnc5c(N)ncnc54)[C@H](OP(=O)(O)O)[C@@H]3O)[C@@H](O)[C@H]2O)C=CC1; assay: HPLC product assay, Michaelis-Menten; format: biochemical, Camellia sinensis; conditions: 3-DHS reduction to SA, co-substrate 3-DHS 1.5 mM, BTP-HCl pH 8.5, 30°C, 3 min; remark: listed apart in the source
From the text: (§2) HPLC product assay, Michaelis-Menten on CsDQD/SDHd

[9] = substrate: O=C(O)C1=C[C@@H](O)[C@@H](O)[C@H](O)C1; assay: HPLC product assay, Michaelis-Menten; format: biochemical, Camellia sinensis; conditions: SA oxidation to 3-DHS, co-substrate NADP+ 1.5 mM, BTP-HCl pH 8.5, 30°C, 3 min
From the text: as §2

[10] = substrate: NC(=O)c1ccc[n+]([C@@H]2O[C@H](COP(=O)(O)OP(=O)(O)OC[C@H]3O[C@@H](n4cnc5c(N)ncnc54)[C@H](OP(=O)(O)O)[C@@H]3O)[C@@H](O)[C@H]2O)c1; assay: HPLC product assay, Michaelis-Menten; format: biochemical, Camellia sinensis; conditions: SA oxidation to 3-DHS, co-substrate SA 1.5 mM, BTP-HCl pH 8.5, 30°C, 3 min; remark: listed apart in the source
From the text: as §2

[11] = substrate: O=C(O)C1=CC(=O)[C@@H](O)[C@H](O)C1; assay: HPLC product assay, Michaelis-Menten; format: biochemical, Camellia sinensis; conditions: 3-DHS reduction to SA, co-substrate NADPH 1.5 mM, BTP-HCl pH 8.5, 30°C, 3 min
From the text: as §2

[12] = substrate: NC(=O)C1=CN([C@@H]2O[C@H](COP(=O)(O)OP(=O)(O)OC[C@H]3O[C@@H](n4cnc5c(N)ncnc54)[C@H](OP(=O)(O)O)[C@@H]3O)[C@@H](O)[C@H]2O)C=CC1; assay: HPLC product assay, Michaelis-Menten; format: biochemical, Camellia sinensis; conditions: 3-DHS reduction to SA, co-substrate 3-DHS 1.5 mM, BTP-HCl pH 8.5, 30°C, 3 min; remark: listed apart in the source
From the text: (§3) HPLC product assay, Michaelis-Menten on CsDQD/SDHc

[13] = substrate: O=C(O)C1=C[C@@H](O)[C@@H](O)[C@H](O)C1; assay: HPLC product assay, Michaelis-Menten; format: biochemical, Camellia sinensis; conditions: SA oxidation to 3-DHS, co-substrate NADP+ 1.5 mM, BTP-HCl pH 8.5, 30°C, 3 min; remark: listed apart in the source
From the text: as §3

[14] = substrate: NC(=O)c1ccc[n+]([C@@H]2O[C@H](COP(=O)(O)OP(=O)(O)OC[C@H]3O[C@@H](n4cnc5c(N)ncnc54)[C@H](OP(=O)(O)O)[C@@H]3O)[C@@H](O)[C@H]2O)c1; assay: HPLC product assay, Michaelis-Menten; format: biochemical, Camellia sinensis; conditions: SA oxidation to 3-DHS, co-substrate SA 1.5 mM, BTP-HCl pH 8.5, 30°C, 3 min; remark: listed apart in the source
From the text: as §3

[15] = substrate: O=C(O)C1=CC(=O)[C@@H](O)[C@H](O)C1; assay: HPLC product assay, Michaelis-Menten; format: biochemical, Camellia sinensis; conditions: 3-DHS reduction to SA, co-substrate NADPH 1.5 mM, BTP-HCl pH 8.5, 30°C, 3 min; remark: listed apart in the source
From the text: as §3

## O=C(O)C1=C[C@@H](O)[C@@H](O)[C@H](O)C1 [SA]
[1]; SA oxidation with NADP+
  HPLC product quantification: a lower enzymatic activity for NADP^+-dependent oxidation of SA
[2]
  HPLC product quantification: CsDQD/SDHb exhibited the lowest SA oxidation activity but had no 3-DHS reduction activity
[3]
  HPLC product quantification: six times higher oxidation activity of SA than CsDQD/SDHb

## O=C(O)C1=CC(=O)[C@@H](O)[C@H](O)C1 [3-DHS]
[1]; 3-DHS reduction with NADPH
  HPLC product quantification: CsSDHa recombinant protein had an almost identical enzymatic activity for NADPH-dependent reduction of 3-DHS

B1: CsDQD/SDHa (Camellia sinensis) (protein)
chain: MELVAPVVAGCGVKMESEGMRKNSTLICVPLMADSVDQMLIYMNKAKLNGADLVEVRLDSLKSFNPPLDIETLIKRCPLPTLFTYRPKWEGGMYDGDESSRLEALQLAMELGADYIDVELQVIHEFNSSMHGKKPAKCKLIVSSHNYENTPSVEDLGNLVVKIQATGADIVKIATTALDITDAARVFQITVHSQVRGVPIIAMVMGERGLMARILCPKFGGYLTFGTLESGIVSAPGQPTMDDLVNLYNIRQIGPDTKVFGIIGKPVGHSKSPILYNEAFKKVGFNGVYLHLLVDDVANFLQTYSSTDFAGFSCTIPHKEAALKCCDEVDPVAKSIGAVNCIVRKSDGKFFGCNTDYVGAITAIEDALGGLQHVNGMVVSPLSGKLFVVIGAGGAGKALAYGAKAKGAKVVIANRTYERAKEIADTIGGDALSLADLSNFHPEDGMILANTTSIGMQPKVDETPVPKQALKSYALVFDAVYTPKITRLLREAEESGAKIVTGVEMFIGQAYEQFERFTGLPAPKELFGKIMAKY
[4]
  Km: 270.306 µM
  kcat/Km: 746 M⁻¹ s⁻¹
[5]
  Km: 272.782 µM
  kcat/Km: 562 M⁻¹ s⁻¹
[6]
  Km: 138.031 µM
  kcat/Km: 845 M⁻¹ s⁻¹
[7]
  Km: 286.576 µM
  kcat/Km: 1410 M⁻¹ s⁻¹

B2: CsDQD/SDHd (Camellia sinensis) (protein)
chain: MTLSSIPISEGGRRNPTMICAPVMAENVDQMLLMMRKAKELGADLVEVRIDYLKNFSPHHDLQILIKQCPLPTLITYRPTWEGGQFDGDETRRQAALRQAVELGADYIDIELKVADEFYKLIQGKKPEKVKIIVSSHNYENTPSAEEIGNLAARIQATGADIVKIATTAQDITDSARIFQLLAHSQVPTIGIVMGERGLMSRILCAKFGGFLTFGALESGIVSAPGQPTLKDLLELYNFRQIGPDTKVHGVIGNPIGHSKSPHLYNTAFRSAGFNGIYLPLLVDSVANFFNTYSSPDFVGYSYTIPHKEAGLKCCDEVDPIAEAIGAISCMVRKPSDGKLIGYNVDYLGAIGAIEEALGGSNGSSNGAVSPLASKLFVVIGAGGAGKALAYGGKEKGARVVVANRTYEKAKELASKVDGEAITLAELDDFHPEDGMILANTTSVGMKPKTDATPISKKALNRYSLVFGAIYTPKWTRLLQEAQDSGAKVVFGTEMFINQAFVQFERFTGMPAPKELIRETLAKNT
[8]
  Km: 248.798 µM
  kcat/Km: 197 M⁻¹ s⁻¹
[9]
  Km: 610.643 µM
  kcat/Km: 138 M⁻¹ s⁻¹
[10]
  Km: 46.342 µM
  kcat/Km: 128 M⁻¹ s⁻¹
[11]
  Km: 465.971 µM
  kcat/Km: 99.5 M⁻¹ s⁻¹

B3: CsDQD/SDHc (Camellia sinensis) (protein)
chain: MASGSFSFATSDVQTSSSGVRSGPTLLCTPLIGTTVDQMLIDMRKAKEIGADMVEIRLDCLREFNPRPDLQILIKQSPLPTLVTYRPIWESGQYEGDENKRQDALRLAMELGADYIDVELQVAQEFNNSISAKKPEKFKVIVSSQNFHSTPSAEAIGNLVARIQATGADIVKIVTTALDITDVARIFQITVHSQIPMIGIAMGERGLISRLLSPKFNGYLTYAALEAGAISAPGQPTVKDLLDLYNFRLIRPDTKVYGIIGKPVGHSKSPLLFNESFKKVGLNSVYVHLLVDDVKKFFSTYSSVDFAGFSCTIPHKEVALECMDEIDQIAKKIGAINNIVRRPDGTLKSYNTDYIGAISAIEDGLRESNGSSPATSSPLAGKLFVVLGAGGAGKSLAYGAQQKGARVVVANRTFERAKELAEKVGGKALTLEEVNDFHPEEGMILANTTSVGMKPNIDLTPISKEALKHYDLVFDAIYTPKDTRLLREARECGKIIVYGTEMLIRQGFEQYKNFTGLQAPEELFRELMSRHA
[12]
  Km: 267.244 µM
  kcat/Km: 193 M⁻¹ s⁻¹
[13]
  Km: 199.653 µM
  kcat/Km: 536 M⁻¹ s⁻¹
[14]
  Km: 114.553 µM
  kcat/Km: 372 M⁻¹ s⁻¹
[15]
  Km: 330.933 µM
  kcat/Km: 507 M⁻¹ s⁻¹
